Results on 125 sequences are retold here after the supplement of paper PMC9112550, “Optimization of the antimicrobial peptide Bac7 by deep mutational scanning” (BMC Biology, 2022).
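Also: peptides expressed intracellularly from a pBAD plasmid library in pooled LB shake-flask culture, induced with 0.3% L-arabinose, DNA abundance read by NGS, three biological replicates, DESeq2 with apeglm shrinkage.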

For the data set, the system named is Escherichia coli TOP10. Put plainly: shrunken log2 fold change of peptide-encoding DNA abundance (4.5 h post-induction vs induction); higher = less antimicrobial activity (less host growth inhibition). Conditions: time post-induction: 4.5 h; library: site-saturation at positions 5, 18, 19, 20.
For RRIRHRPPRLPRPRPRPWKKPRP, the “shrunken log2 fold change” value was -0.0699.
Take RRIRDRPPRLPRPRPRPFTQPRP: the “shrunken log2 fold change” value was -0.147.
Next, RRIRVRPPRLPRPRPRPYSLPRP: -0.533.
As for RRIRWRPPRLPRPRPRPVTNPRP, the “shrunken log2 fold change” value worked out at 0.266.
The same measure for RRIRSRPPRLPRPRPRPVFHPRP: -0.026.
RRIRVRPPRLPRPRPRPFIDPRP: the “shrunken log2 fold change” value came out at 0.0294.
RRIRIRPPRLPRPRPRPTICPRP: the “shrunken log2 fold change” value is -0.191.
The same measure for RRIRDRPPRLPRPRPRPPGSPRP: 0.511; for RRIRMRPPRLPRPRPRPAYDPRP: -0.0572.
Regarding RRIRMRPPRLPRPRPRPKDYPRP, the “shrunken log2 fold change” value is 0.224.
Next, RRIRIRPPRLPRPRPRPLRRPRP: 0.0866.
Next, RRIRTRPPRLPRPRPRPPATPRP: 0.213; RRIRIRPPRLPRPRPRPRCWPRP: 0.138; RRIRWRPPRLPRPRPRPLYFPRP: -0.613.
As to RRIRFRPPRLPRPRPRPVDMPRP, the “shrunken log2 fold change” value was found to be 0.00603.
For the sequence RRIRFRPPRLPRPRPRPTVDPRP, the “shrunken log2 fold change” value is -0.175.
Next, RRIRVRPPRLPRPRPRPVISPRP: -0.509; RRIRMRPPRLPRPRPRPHDLPRP: -0.0136; RRIRPRPPRLPRPRPRPVTQPRP: 0.2.
For RRIRQRPPRLPRPRPRPREVPRP, the “shrunken log2 fold change” value turned out to be 4.11.
The same measure for RRIRYRPPRLPRPRPRPVGCPRP: -0.284.
The same measure for RRIRYRPPRLPRPRPRPFGPPRP: -0.0934.
RRIRDRPPRLPRPRPRPFQYPRP: the “shrunken log2 fold change” value came out at 0.0242.
The same measure for RRIRLRPPRLPRPRPRPHVEPRP: 0.522; for RRIRDRPPRLPRPRPRPYMIPRP: -0.587; for RRIRFRPPRLPRPRPRPWMVPRP: -0.227.
Next, RRIRYRPPRLPRPRPRPVINPRP: -0.338; RRIRGRPPRLPRPRPRPFPWPRP: 0.383.
Next, RRIRKRPPRLPRPRPRPWNRPRP: -0.078; RRIRPRPPRLPRPRPRPYCFPRP: -0.655; RRIRHRPPRLPRPRPRPVYGPRP: -0.528.
With RRIRPRPPRLPRPRPRPCLFPRP, the “shrunken log2 fold change” value is -0.357.
Consider RRIRCRPPRLPRPRPRPDVWPRP, for which the “shrunken log2 fold change” value is 0.198.
Next, RRIRPRPPRLPRPRPRPMQKPRP: 0.0491; RRIRQRPPRLPRPRPRPTQCPRP: -0.343; RRIRERPPRLPRPRPRPDKNPRP: -0.383.
RRIRSRPPRLPRPRPRPMQTPRP: the “shrunken log2 fold change” value was 0.291.
Consider RRIRPRPPRLPRPRPRPHVQPRP, for which the “shrunken log2 fold change” value was -0.0151.
Next, RRIRCRPPRLPRPRPRPMMQPRP: 0.0143.
The same measure for RRIRLRPPRLPRPRPRPYESPRP: -0.957; for RRIRNRPPRLPRPRPRPIAQPRP: -0.00164; for RRIRNRPPRLPRPRPRPKAHPRP: 0.18.
The same measure for RRIRTRPPRLPRPRPRPFKIPRP: -0.0514; for RRIRARPPRLPRPRPRPNDWPRP: 0.466.
RRIRQRPPRLPRPRPRPPCAPRP: the “shrunken log2 fold change” value worked out at 0.293.
RRIRMRPPRLPRPRPRPPSLPRP: the “shrunken log2 fold change” value came out at 0.619.
Turning to RRIRYRPPRLPRPRPRPQFWPRP, the “shrunken log2 fold change” value was determined as 0.313.
Turning to RRIRMRPPRLPRPRPRPRSMPRP, the “shrunken log2 fold change” value is -0.00173.
The same measure for RRIRFRPPRLPRPRPRPNLNPRP: -0.504.
Next, RRIRARPPRLPRPRPRPVMEPRP: 1.04.
In the case of RRIRERPPRLPRPRPRPHCPPRP, the “shrunken log2 fold change” value is -0.0673.
The same measure for RRIRSRPPRLPRPRPRPQKSPRP: -0.181.
Regarding RRIRCRPPRLPRPRPRPVNDPRP, the “shrunken log2 fold change” value was -0.186.
The same measure for RRIRIRPPRLPRPRPRPNPWPRP: -0.119; for RRIRKRPPRLPRPRPRPWWQPRP: 0.0795; for RRIRVRPPRLPRPRPRPLFLPRP: -0.417.
Take RRIRTRPPRLPRPRPRPIYCPRP: the “shrunken log2 fold change” value is -0.233.
Next, RRIRVRPPRLPRPRPRPHFPPRP: 0.046; RRIRKRPPRLPRPRPRPISTPRP: -0.218; RRIRVRPPRLPRPRPRPAKTPRP: 0.0432.
On to RRIRQRPPRLPRPRPRPIWPPRP, for which the “shrunken log2 fold change” value was -0.0155.
Turning to RRIRRRPPRLPRPRPRPFNFPRP, the “shrunken log2 fold change” value was -0.473.
Next, RRIRQRPPRLPRPRPRPHIPPRP: -0.0245; RRIRQRPPRLPRPRPRPWQNPRP: 0.0546; RRIRYRPPRLPRPRPRPYELPRP: -0.0164.
The same measure for RRIRIRPPRLPRPRPRPETPPRP: 0.207; for RRIRLRPPRLPRPRPRPPVQPRP: 0.553.
With RRIRNRPPRLPRPRPRPCFHPRP, the “shrunken log2 fold change” value is -0.503.
As to RRIRNRPPRLPRPRPRPEYMPRP, the “shrunken log2 fold change” value is -0.0146.
The same measure for RRIRRRPPRLPRPRPRPWYFPRP: -0.204; for RRIRERPPRLPRPRPRPSQCPRP: -0.0684.
For RRIRYRPPRLPRPRPRPYVQPRP, the “shrunken log2 fold change” value was -1.25.
In the case of RRIRARPPRLPRPRPRPMNMPRP, the “shrunken log2 fold change” value is -0.0785.
Next, RRIRNRPPRLPRPRPRPWARPRP: 0.0712.
The same measure for RRIRGRPPRLPRPRPRPAETPRP: -0.0775; for RRIRDRPPRLPRPRPRPKADPRP: -0.0266.
Regarding RRIRKRPPRLPRPRPRPTCRPRP, the “shrunken log2 fold change” value was found to be 0.289.
The same measure for RRIRFRPPRLPRPRPRPHWYPRP: -0.343; for RRIRLRPPRLPRPRPRPDDKPRP: -0.525; for RRIRGRPPRLPRPRPRPGIGPRP: 0.942.
Next, RRIRYRPPRLPRPRPRPQDAPRP: -0.215; RRIRPRPPRLPRPRPRPIKLPRP: -0.0641.
Next, RRIRWRPPRLPRPRPRPSDWPRP: 0.12; RRIRIRPPRLPRPRPRPIARPRP: 0.136; RRIRERPPRLPRPRPRPCPIPRP: -0.246.
With RRIRARPPRLPRPRPRPDFQPRP, the “shrunken log2 fold change” value is 0.149.
As for RRIRCRPPRLPRPRPRPCQTPRP, the “shrunken log2 fold change” value was -0.7.
The same measure for RRIRYRPPRLPRPRPRPGARPRP: -0.00825; for RRIRIRPPRLPRPRPRPWLLPRP: -0.0948; for RRIRPRPPRLPRPRPRPMHEPRP: 0.297.
Next, RRIRTRPPRLPRPRPRPFKEPRP: -0.125.
Next, RRIRDRPPRLPRPRPRPEQGPRP: 0.0995; RRIRRRPPRLPRPRPRPMTYPRP: -0.0343; RRIRERPPRLPRPRPRPTQPPRP: 0.254.
RRIRFRPPRLPRPRPRPPFEPRP: the “shrunken log2 fold change” value turned out to be 0.347.
Next, RRIRMRPPRLPRPRPRPFEDPRP: 0.2; RRIRRRPPRLPRPRPRPYPTPRP: -0.0423; RRIRERPPRLPRPRPRPNQWPRP: 0.062.
In the case of RRIRNRPPRLPRPRPRPERFPRP, the “shrunken log2 fold change” value turned out to be 0.128.
The same measure for RRIRPRPPRLPRPRPRPVVSPRP: -0.0387; for RRIRDRPPRLPRPRPRPLGCPRP: 0.206.
Next, RRIRVRPPRLPRPRPRPWRFPRP: -0.0846; RRIRLRPPRLPRPRPRPVYQPRP: -0.0597.
The same measure for RRIRQRPPRLPRPRPRPMFPPRP: -0.181.
As to RRIRTRPPRLPRPRPRPDDLPRP, the “shrunken log2 fold change” value came to 0.0162.
On to RRIRRRPPRLPRPRPRPACPPRP, for which the “shrunken log2 fold change” value stood at 0.353.
The same measure for RRIRCRPPRLPRPRPRPDLGPRP: 0.43.
The same measure for RRIRWRPPRLPRPRPRPIYWPRP: -0.208; for RRIRRRPPRLPRPRPRPNKDPRP: 0.202; for RRIRWRPPRLPRPRPRPSYPPRP: -0.254.
The same measure for RRIRVRPPRLPRPRPRPMRMPRP: -0.00559; for RRIRDRPPRLPRPRPRPKWSPRP: -0.0182.
As to RRIRPRPPRLPRPRPRPLTAPRP, the “shrunken log2 fold change” value worked out at 0.212.
In the case of RRIRHRPPRLPRPRPRPVPIPRP, the “shrunken log2 fold change” value came out at 0.0935.
Next, RRIRCRPPRLPRPRPRPRVCPRP: 0.284.
For the sequence RRIRIRPPRLPRPRPRPLQQPRP, the “shrunken log2 fold change” value was -0.293.
The same measure for RRIRSRPPRLPRPRPRPYMIPRP: -1.11; for RRIRHRPPRLPRPRPRPLWVPRP: -0.142; for RRIRDRPPRLPRPRPRPQYAPRP: -0.101.
The same measure for RRIRPRPPRLPRPRPRPPISPRP: -0.0159; for RRIRSRPPRLPRPRPRPMGQPRP: 0.0126; for RRIRNRPPRLPRPRPRPDKTPRP: -0.0594.
The same measure for RRIRQRPPRLPRPRPRPDSPPRP: 0.0174; for RRIRSRPPRLPRPRPRPFKNPRP: -0.378.
Consider RRIRFRPPRLPRPRPRPSQQPRP, for which the “shrunken log2 fold change” value is -0.277.
